Experimental data reported in PMC7755396 (eLife, 2020).

Tests used:
Conditions in all cases: both partners purified
[1] = molecular target: T1, Puumala virus (Gn−Gc)4 glycoprotein spike on virus-like particles (Puumala orthohantavirus, strain …, UniProt P27312); experiment: cryo-EM structure
T1 construct: copies: 4 + 4

[2] = molecular target: T2, Puumala virus Gc as displayed on virus-like particles (Puumala orthohantavirus); experiment: cryo-EM structure
T2 chain: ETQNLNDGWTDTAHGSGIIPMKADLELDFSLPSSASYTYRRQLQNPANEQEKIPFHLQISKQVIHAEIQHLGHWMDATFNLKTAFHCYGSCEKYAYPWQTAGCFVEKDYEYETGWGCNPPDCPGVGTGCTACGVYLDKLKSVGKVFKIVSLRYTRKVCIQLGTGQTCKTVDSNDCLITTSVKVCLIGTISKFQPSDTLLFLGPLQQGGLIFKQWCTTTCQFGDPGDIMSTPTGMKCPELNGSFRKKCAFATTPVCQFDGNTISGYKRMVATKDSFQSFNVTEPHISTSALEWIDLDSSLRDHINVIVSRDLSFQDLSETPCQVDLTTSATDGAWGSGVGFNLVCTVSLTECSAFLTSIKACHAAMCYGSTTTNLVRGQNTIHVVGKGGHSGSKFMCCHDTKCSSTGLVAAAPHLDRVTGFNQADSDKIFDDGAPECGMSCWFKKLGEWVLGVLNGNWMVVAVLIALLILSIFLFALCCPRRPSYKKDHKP

[3] = molecular target: Puumala virus (PUUV) Gc ectodomain, residues 659–1105 (Puumala orthohantavirus, GPC of GenBank …, UniProt Q9WJ31); experiment: crystal structure

Measured: binding result

B1: Fab P-4G2 (antigen-binding fragment of mAb P-4G2) (Fab, V domains shown)
VH: QVQMKESGGGLVQPGKSLKLSCAASGFTFSDFWMSWVRQPSGKGLEWVARINTNGDTTHYTDDMKGRFTISRDNAKTTLYLEMSPLKSEDTAMYYCTRDRLGPFDYWGQGTTVTVSS
VL: DIVMTQSPAFPPVSLGDTVTITCQASQSVYKNLAWYQQKPGKSPRLLIFGMSSLADGVPSRFSASGSDKQYSLKIRGLQPEDAAIYYCQQHYIAPYTFGAGTRLEIK
notes: also called Fab 4G2
binds: [1] | [2] | [3]
